One molecule from publication PMC3510514 (Nucleic Acids Research, 2012) can be followed below.

For the assay, the target named is T1, GST-ubiquitin (human, UniProt P0CG48 1-76).
T1 construct: ubiquitin, the cut product of the polyubiquitin precursor; also called GST-tagged ubiquitin; source: purified
Put plainly: pull-down; GST-ubiquitin (3 μg) on glutathione-sepharose beads, FLAG-Spartan (1 μg) in solution; 4 h at 4°C, buffer I (40 mM Tris HCl pH 7.5, 85 mM NaCl, 0.1 mM DTT, 10% glycerol, 0.01% NP40); immunoblot with anti-FLAG and anti-GST. Conditions: both partners purified.

B1: FLAG-Spartan PIP mutant YF331,332AA (natural protein, human, UniProt Q9H040 1-489, looked up)
chain: MDDDLMLALRLQEEWNLQEAERDHAQESLSLVDASWELVDPTPDLQALFVQFNDQFFWGQLEAVEVKWSVRMTLCAGICSYEGKGGMCSIRLSEPLLKLRPRKDLVETLLHEMIHAYLFVTNNDKDREGHGPEFCKHMHRINSLTGANITVYHTFHDEVDEYRRHWWRCNGPCQHRPPYYGYVKRATNREPSAHDYWWAEHQKTCGGTYIKIKEPENYSKKGKGKAKLGKEPVLAAENKDKPNRGEAQLVIPFSGKGYVLGETSNLPSPGKLITSHAINKTQDLLNQNHSANAVRPNSKIKVKFEQNGSSKNSHLVSPAVSNSHQNVLSNAAPRVSFANQKAFRGVNGSPRISVTVGNIPKNSVSSSSQRRVSSSKISLRNSSKVTESASVMPSQDVSGSEDTFPNKRPRLEDKTVFDNFFIKKEQIKSSGNDPKYSTTTAQNSSSSSSQSKMVNCPVCQNEVLESQINEHLDWCLEGDSIKVKSEESL
notes: Spartan/C1orf124, human; cDNA clone bought from ImaGenes; also called PIP mutant Spartan; YF331,332AA Spartan; source: S. cerevisiae BJ5464, purified (glutathione-Sepharose, eluted by PreScission protease); not shown: GST, N-terminal, cleaved; FLAG, N-terminal, kept
Regarding B1, the binding result was “binds”.
